According to paper PMC8938308 (Human genetics, 2021):

Molecular target: sodium/potassium-transporting ATPase ATP1A3, F309S mutant, V5-tagged (human, UniProt P13637-3 1-1026, F309S)
Experiment: co-IP

reduction of the interaction against WT ATP1A3: ~50%
B1: TOMM22, GFP-tagged (natural protein, UniProt Q9NS69 1-142, looked up)
chain: MAAAVAAAGAGEPQSPDELLPKGDAEKPEEELEEDDDEELDETLSERLWGLTEMFPERVRSAAGATFDLSLFVAQKMYRFSRAALWIGTTSFMILVLPVVFETEKLQMEQQQQLQQRQILLGPNTGLSGGMPGALPSLPGKI
